{"source": "paper PMC9800333", "about": "“Determinants of receptor tyrosine phosphatase homophilic adhesion: Structural comparison of PTPRK and PTPRM extracellular domains” (The Journal of Biological Chemistry, 2022)", "proteins": {"B1": {"name": "full-length PTPRK extracellular domain (domain or fragment, human, UniProt Q15262-3 28-752, looked up)", "chain": "QGQFSAGGCTFDDGPGACDYHQDLYDDFEWVHVSAQEPHYLPPEMPQGSYMIVDSSDHDPGEKARLQLPTMKENDTHCIDFSYLLYSQKGLNPGTLNILVRVNKGPLANPIWNVTGFTGRDWLRAELAVSTFWPNEYQVIFEAEVSGGRSGYIAIDDIQVLSYPCDKSPHFLRLGDVEVNAGQNATFQCIATGRDAVHNKLWLQRRNGEDIPVAQTKNINHRRFAASFRLQEVTKTDQDLYRCVTQSERGSGVSNFAQLIVREPPRPIAPPQLLGVGPTYLLIQLNANSIIGDGPIILKEVEYRMTSGSWTETHAVNAPTYKLWHLDPDTEYEIRVLLTRPGEGGTGLPGPPLITRTKCAEPMRTPKTLKIAEIQARRIAVDWESLGYNITRCHTFNVTICYHYFRGHNESKADCLDMDPKAPQHVVNHLPPYTNVSLKMILTNPEGRKESEETIIQTDEDVPGPVPVKSLQGTSFENKIFLNWKEPLDPNGIITQYEISYSSIRSFDPAVPVAGPPQTVSNLWNSTHHVFMHLHPGTTYQFFIRASTVKGFGPATAINVTTNISAPTLPDYEGVDASLNETATTITVLLRPAQAKGAPISAYQIVVEELHPHRTKREAGAMECYQVPVTYQNAMSGGAPYYFAAELPPGNLPEPAPFTVGDNRTYQGFWNPPLAPRKGYNIYFQAMSSVEKETKTQCVRIATKAAATEEPEVIPDPAKQTDRVV", "modifications": "native N-linked glycans (no deglycosylation)", "notes": "human PTPRK, full extracellular domain (MAM, Ig, FN1-4), residues 28-752; numbers count on: UniProt Q15262-3; Cloned into pHLSec (AgeI/KpnI) in frame with the vector's N-terminal secretion signal; The C-terminal His6 tag was included in the SAXS models; also called PTPRK-ECD; PTPRK full ECD; not shown: Lys-His6, C-terminal, kept"}, "B2": {"name": "PTPRK MAM-Ig-FN1 domains (domain or fragment, human, UniProt Q15262-3 28-385, looked up)", "chain": "QGQFSAGGCTFDDGPGACDYHQDLYDDFEWVHVSAQEPHYLPPEMPQGSYMIVDSSDHDPGEKARLQLPTMKENDTHCIDFSYLLYSQKGLNPGTLNILVRVNKGPLANPIWNVTGFTGRDWLRAELAVSTFWPNEYQVIFEAEVSGGRSGYIAIDDIQVLSYPCDKSPHFLRLGDVEVNAGQNATFQCIATGRDAVHNKLWLQRRNGEDIPVAQTKNINHRRFAASFRLQEVTKTDQDLYRCVTQSERGSGVSNFAQLIVREPPRPIAPPQLLGVGPTYLLIQLNANSIIGDGPIILKEVEYRMTSGSWTETHAVNAPTYKLWHLDPDTEYEIRVLLTRPGEGGTGLPGPPLITRTK", "modifications": "native N-linked glycans (no deglycosylation); glycans seen in the structure at N101, N140 and N211", "notes": "human PTPRK, N-terminal MAM, Ig and first FN domains, residues 28-385; numbers count on: UniProt Q15262-3; Cloned into pHLSec (AgeI/KpnI) in frame with the vector's N-terminal secretion signal; also called PTPRK-MIFN1; MIFN1"}, "B3": {"name": "PTPRK-MIFN1.W351G (domain or fragment, human, UniProt Q15262-3 28-385, looked up)", "chain": "B2 chain with W324G", "notes": "human PTPRK, MAM-Ig-FN1 domains, residues 28-385, with W351G; numbers count on: UniProt Q15262-3; PDB 8A1F is the wild-type parent; also called W315G mutant form of PTPRK-MIFN1; source: expressed and purified (as PTPRK-MIFN1: human embryonic kidney-293F cells, nickel-nitrilotriacetic acid agarose, SEC)"}}, "target": "the molecule itself", "assay": "SEC-MALS; pH 8: 100 ul at 1 mg/ml on Superdex 200 Increase 10/300 GL in 100 mM Tris-HCl, pH 8, 250 mM NaCl; protein conjugate analysis for glycans; dimer to monomers", "note": "Positions count from the first letter of the chain named. Names may count otherwise.", "data": [{"protein": "B1", "values": [{"measurement": "stoichiometry N", "result": 2}]}, {"protein": "B2", "values": [{"measurement": "stoichiometry N", "result": 2}]}, {"protein": "B3", "values": [{"measurement": "binding result", "result": "binds"}]}]}
